What was measured:
[1] = molecular target: non-targeted IgG-IL2 (interleukin-2 fused to the C-terminus of a heavy chain of a germline antibody, which is not binding to a target); assay: bridging ELISA, drug-Bi and drug-Dig, human pooled serum, binder 0.49 ng/mL assay / 10 ng/mL matrix
[2] = molecular target: targeted IgG-IL2 (interleukin-2 fused to the C-terminus of a heavy chain of an antibody specifically binding to a therapeutic target); assay: as above
[3] = molecular target: TCB (T-cell bispecific format) drug antibody; assay: as above
[4] = molecular target: non-targeted IgG-IL2 (interleukin-2 fused to the C-terminus of a heavy chain of a germline antibody, which is not binding to a target); assay: bridging ELISA, IgG-IL2-Bi and -Dig, binder 0.03 ng/mL assay / 0.6 ng/mL matrix
[5] = molecular target: non-targeted IgG-IL2 (interleukin-2 fused to the C-terminus of a heavy chain of a germline antibody, which is not binding to a target); assay: bridging ELISA, IgG-IL2-Bi and -Dig, binder 7.8 ng/mL assay / 156 ng/mL matrix
[6] = molecular target: non-targeted IgG-IL2 (interleukin-2 fused to the C-terminus of a heavy chain of a germline antibody, which is not binding to a target); assay: bridging ELISA, drug-Bi and drug-Dig, human pooled serum, binder 7.8 ng/mL assay / 156 ng/mL matrix
[7] = molecular target: targeted IgG-IL2 (interleukin-2 fused to the C-terminus of a heavy chain of an antibody specifically binding to a therapeutic target); assay: as above
[8] = molecular target: TCB (T-cell bispecific format) drug antibody; assay: as above
[9] = molecular target: non-targeted IgG-IL2 (interleukin-2 fused to the C-terminus of a heavy chain of a germline antibody, which is not binding to a target); assay: bridging ELISA, drug-Bi and drug-Dig, human pooled serum, binder 2.0 ng/mL assay / 39 ng/mL matrix
[10] = molecular target: targeted IgG-IL2 (interleukin-2 fused to the C-terminus of a heavy chain of an antibody specifically binding to a therapeutic target); assay: as above
[11] = molecular target: TCB (T-cell bispecific format) drug antibody; assay: as above
[12] = molecular target: non-targeted IgG-IL2 (interleukin-2 fused to the C-terminus of a heavy chain of a germline antibody, which is not binding to a target); assay: bridging ELISA, drug-Bi and drug-Dig, human pooled serum, binder 0.24 ng/mL assay / 4.9 ng/mL matrix
[13] = molecular target: targeted IgG-IL2 (interleukin-2 fused to the C-terminus of a heavy chain of an antibody specifically binding to a therapeutic target); assay: as above
[14] = molecular target: TCB (T-cell bispecific format) drug antibody; assay: as above
[15] = molecular target: TCB (T-cell bispecific format) drug antibody; assay: bridging ELISA, drug-Bi and drug-Dig, human pooled serum, binder 125 ng/mL assay / 2500 ng/mL matrix
[16] = molecular target: non-targeted IgG-IL2 (interleukin-2 fused to the C-terminus of a heavy chain of a germline antibody, which is not binding to a target); assay: bridging ELISA, IgG-IL2-Bi and -Dig, binder 3.9 ng/mL assay / 78 ng/mL matrix
[17] = molecular target: non-targeted IgG-IL2 (interleukin-2 fused to the C-terminus of a heavy chain of a germline antibody, which is not binding to a target); assay: bridging ELISA, drug-Bi and drug-Dig, human pooled serum, binder 31 ng/mL assay / 625 ng/mL matrix
[18] = molecular target: targeted IgG-IL2 (interleukin-2 fused to the C-terminus of a heavy chain of an antibody specifically binding to a therapeutic target); assay: as above
[19] = molecular target: TCB (T-cell bispecific format) drug antibody; assay: as above
[20] = molecular target: non-targeted IgG-IL2 (interleukin-2 fused to the C-terminus of a heavy chain of a germline antibody, which is not binding to a target); assay: bridging ELISA, drug-Bi and drug-Dig, human pooled serum, binder 16 ng/mL assay / 312.5 ng/mL matrix
[21] = molecular target: targeted IgG-IL2 (interleukin-2 fused to the C-terminus of a heavy chain of an antibody specifically binding to a therapeutic target); assay: as above
[22] = molecular target: TCB (T-cell bispecific format) drug antibody; assay: as above
[23] = molecular target: non-targeted IgG-IL2 (interleukin-2 fused to the C-terminus of a heavy chain of a germline antibody, which is not binding to a target); assay: bridging ELISA, IgG-IL2-Bi and -Dig, binder 31 ng/mL assay / 625 ng/mL matrix
[24] = molecular target: non-targeted IgG-IL2 (interleukin-2 fused to the C-terminus of a heavy chain of a germline antibody, which is not binding to a target); assay: bridging ELISA, drug-Bi and drug-Dig, human pooled serum, binder 0.06 ng/mL assay / 1.2 ng/mL matrix
[25] = molecular target: targeted IgG-IL2 (interleukin-2 fused to the C-terminus of a heavy chain of an antibody specifically binding to a therapeutic target); assay: as above
[26] = molecular target: TCB (T-cell bispecific format) drug antibody; assay: as above

- signal [AU] [1]: 0.045 AU
- signal [AU] [2]: 0.0675 AU
- signal [AU] [3]: 0.0835 AU
- signal [AU] [4]: 0.0525 AU
- signal [AU] [5]: 0.539 AU
- signal [AU] [6]: 0.137 AU
- signal [AU] [7]: 0.475 AU
- signal [AU] [8]: 0.654 AU
- signal [AU] [9]: 0.0615 AU
- signal [AU] [10]: 0.148 AU
- signal [AU] [11]: 0.195 AU
- signal [AU] [12]: 0.045 AU
- signal [AU] [13]: 0.055 AU
- signal [AU] [14]: 0.0645 AU
- signal [AU] [15]: 3.05 AU
- signal [AU] [16]: 0.286 AU
- signal [AU] [17]: 0.408 AU
- signal [AU] [18]: 1.65 AU
- signal [AU] [19]: 2.09 AU
- signal [AU] [20]: 0.23 AU
- signal [AU] [21]: 0.894 AU
- signal [AU] [22]: 1.19 AU
- signal [AU] [23]: 1.89 AU
- signal [AU] [24]: 0.042 AU
- signal [AU] [25]: 0.042 AU
- signal [AU] [26]: 0.049 AU
B1: multivalent anti-PG antibody derived from clone 1.7.24 (mixed Pool 2, 3, 4) (antibody, V domains shown)
VH: EVKLLESGGGLVQPGGSLKLSCAASGFDFSRYWMNWVRQAPGKGLEWIGEITPDSSTINYTPSLKDKFIISRDNAKNTLYLQMIKVRSEDTALYYCVRPYDYGAWFASWGQGTLVTVSA
VL: QAVVTQESALTTSPGETVTLTCRSSTGAVTTSNYANWVQEKPDHLFTGLIGGTNKRAPGVPARFSGSLIGDKAALTITGAQTEDEAIYFCALWYSNHWVFGGGTKLTVL
modifications: lysine amines derivatised with SATP or MHS and cross-linked (sites not given)

Source: patent US20240410900A1
